Source: the nanobody polyreactivity screen of Harvey et al. (2022)

Assay: yeast display, Sf9 membrane polyspecificity reagent, FACS + sequencing; frameworks hold sequencing errors
How it was run: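 Galactose induction of a Saccharomyces cerevisiae BJ5465 synthetic nanobody display library ran 36–48 hours. The cells were then stained for 1 hour at 4 °C with 10% biotinylated, detergent-solubilized Sf9 membrane reagent, pulled down on streptavidin microbeads and FACS-sorted into low and high (top ~1%) gates on expression and reagent-binding fluorescence. Labels for polyreactivity follow the gate of origin.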

| Sequence | polyreactivity (PSR sort gate) |
| --- | --- |
| QVQLVESGGGLVQAGGSLRVSCAASGFTFRGYAMGWYRQAPGKERELVAAIRRGVITNYADSVKGRFTISRDNAKNTVYLQMNSLKPEDTAVYYCAAGNITPYRYYHGYYQSIYDYWGQGTQVTVSS | low polyreactivity |
| QVQLVESGGGLVQAGGSLRVSCAASGGTFGNNDMGWYRQAPGKEWELFAAIRAAGTTYYADSVKGRFTISRDNAKNTVYLQMNSLKPEDTAVYYCIADTTGYWSYGFQYYGEDYWGQGTQVTVSS | low polyreactivity |
| QVQLVESGGGLVQAGGSLRVSCAASGLTFDTNAMGWYRQARGKERELVAAITDSGDSTYYADSVKGRFTISRDNAKNTVYLQMNRLKPEDSAVYYCAARRSNLAWGRRRMYYWGQGTQVTVSS | high polyreactivity |
| QVQLVESGGGLVQAGGSLRVSCAASGLTFSVYTRGWYRQAPGKERELVAAITTSGGRTYYADSVKGRFTISRDNAKNTVYLQMNSLKPEDTAVYYCAAVRTGDTTGTMGYWGQGTQVTVSS | high polyreactivity |
| QVQLVESGGGLVQAGGSLRVSCAASGNSFTGYVMGWYRQAPGKERELVAAIRSGGSTYYADSVKGRFRISRDNAKNTVYLQMTSLKPEDTAVYYCNARYRYRLRGYDYWGQGTQVTVSS | high polyreactivity |
| QVQLVESGGGLVQAGGSLRVSCAASGRIFGYNAMGWSRQAPVKERELDAAIRGGGSTYYADSVKGRFTISRDNAKHSVYLQMYSLKPEDTAVYYCAATSYTYVLSPYRGDYWGQGTQVTVSS | high polyreactivity |
| QVQLVESGGGLVQAGGSLRVSCAASGRTFARYAKGWYRQAPGKERELVAVISRTGSTYYADSVKGRFTISRDNAKNTVYLQMNSLKPEDTAVYYCATVYYYLAYGWSYSDMDYWGQGTQVTVSS | high polyreactivity |
| QVQLVESGGGLVQAGGSLRVSCAASGRTFDSYAMGWYRQAPGKEREFVAAISYSGTSTYYADSVKGRFTISRDNAKNTVYLQMNSLKPEDTAVYYCNAARETRPRDYYWGQGTQVTVSS | low polyreactivity |
| QVQLVESGGGLVQAGGSLRVSCAASGSIFKNNPMGWYRQAPGKERELVDANRYSGGRTYYAHSVKGRFTISRDHAKNTVYIQMNSLKPEVTAVYDCAAGSIQYRPTYTGDYWGQGSQVTVSS | high polyreactivity |
| QVQLVESGGGLVQAGGSLRVSCAASGSIFRFNVMGWYRQAPGKERELVAAITRGDSTNYADSVKGRFTISRDNAKNTVYLQMNSLKPEDTAVYYCAAGYYYYLRDHDYWGQGTQVTVSS | low polyreactivity |
| QVQLVESGGGLVQAGGSLRVSCAASGSIFYYAMGWYRQAPGKERELVASIRSGGSTKFADSVKGRFTISRDNAKNTVYLQMNSLKPEDTAVYYCAARGVIRYTYKSTPYDYWGQGTQVTVSS | high polyreactivity |
| QVQLVESGGGLVQAGGSLRVSCAASGSTFCSNAKGWYRQAPGKERELVAAISSGGSTNYADSVKGRFTISRDNAKNTVYLQMYSLKPEDTAVYYCAADRSPEYYWGQGTQVTVSS | low polyreactivity |
| QVQLVESGGGLVQAGGSLRVSCAASGSTFGTYGMGWYRPAPGKERELVADITSGGSTYYADSVKGRFTISRDNAKNTVYLQMNSLTPEDTAVYYCAASWFVWSTAVPYDYWGQGTQVTVSS | low polyreactivity |
| QVQLVESGGGLVQAGGSLRVSCAASGSTFGYYAMGWYREAPGKEREFVAAINYGDGNTYYADSVKGRFTISRDNAKNTVYLQMNRLKPEDTAVYYCATYYWAPTGAHGGYGYWVQGTQVTVSS | low polyreactivity |
| QVQLVESGGGLVQAGGSLRVSCAASGSTFSAYAMGWYRPAPGKERELVAAISASGGSTYYADSVKGRFTISRDNAKNTVSLQMNSLKPEDTAVYYCNADRWKYELDYWGQGTQVTVSS | high polyreactivity |
| QVQLVESGGGLVQAGGSLRVSCAASGSTFVGNAMGWYRQEPGKERELVADITSGGSTNYADSVKGRFTISRDNAKNTVYLQMKSLKPEDTAVYYFAAVYLCSQRREFWGQGTQVTVSS | low polyreactivity |
| QVQLVESGGGLVQAGGSLRVSCAPSGIIFGGNVMGWYRQAPGKERELVAGITSTGGRTYYADSVKGRFTISRDNAKNTVYLQMNSLKPEDTAVYYCAAVSTLVRGNFNRIRYGYWGHGTQVTVSS | high polyreactivity |
| QVQLVESGGGLVQAGGSLRVSCASSGSIFLDNAMEWYRQAPGKERELVAAISYGDGSTYYADSVKGRITISRDNAKNTVYLQMNRLKPEDTAVYYCAAERYTIPPIYDYWGQGTQVTVSS | low polyreactivity |
| QVQLVESGGGLVQAGGSLRVSCGASGRTFLFYAMGWYRQAPGKERELVASITGRGGRTSYADSEKGRFTISRDNAKNTVYLQKNSLKPEDTAVYYCAARNPYTSTYYDWGQGTQETVSS | high polyreactivity |
| QVQLVESGGGLVQAGGSLSIICAASGFTFRYYAMGWYREAPGKERELVAAISKSGTSTYYADSVKGRFTISRDNAKNTVYLQMNSLKPEDTAVYYCAARRGRRYYYWGQGTQVTVSS | high polyreactivity |
| QVQLVESGGGLVQAGGSLSISCAASGSIFLAYDMGWYRPAPGKARELVAAITAGTGSTYYADSVKGRFTISRDNAKNTVYLQMTSLKPDDTAVYYCAAELWGGTYGEYEYWGQGTQVTVSS | low polyreactivity |
| QVQLVESGGGLVQAGGSLSLICAASGFIFLYYAMGWYRQAPGKERELVADISRGADTKYADSVKGRFTISRDNAKNTVYLQMNSLKPEDTAVYYCATDITTFWFPYPGVELGYWGQGTQVTVSS | low polyreactivity |

| Sequence | polyreactivity (PSR sort gate) |
| --- | --- |
| QVQLVESGGGLVQAGGSLSLICAASRRSFYHYTMGWSRQAPGKERELVAAMTSGGSTYYADSVKGRFTISRDNAKNTVYLQMNSLKPEDTAVYYCARVRPLYDYSRYDYWGQRTQVTVSS | high polyreactivity |
| QVQLVESGGGLVQAGGSLSLSCAASGFIFYRYAMGWYRQAPGKERELVAAITSGGSTKYADSVKGRFTISRDNAKNTVYLQMNSLKPEYTAVYYCAADPFDWFSYYYWGQGTQVTVSS | low polyreactivity |
| QVQLVESGGGLVQAGGSLSLSCAASGFILDFNSLGWYRQAPGKERELVAAISISGVSTYYADSVKGRFTISRDNAKNTVYLQMHSLKPEDTAVYYGAAAQVAAVYWRPGGYDYWGQGTQVTVSS | low polyreactivity |
| QVQLVESGGGLVQAGGSLSLSCAASGFISASNVMGWYRHAPGKERELVAAINWSGDNTYYADSVKWRFTISRDTAKNTVYLLMNSLKAEDTAVYYCNDDVYSYATPEMDYWGQGTQVTVSS | low polyreactivity |
| QVQLVESGGGLVQAGGSLSLSCAASGFTFSWNAMGWYSQAPGKERELVATITRSGSTYYADSVKGRFTISRDNSKNTVYLQMNSLKPEDTAVYYCAVVSWYRYSRYVNDYWGQGTQVTVSS | high polyreactivity |
| QVQLVESGGGLVQAGGSLSLSCAASGGIFQVNSMGWYRQATGKEREVLAAISWSVGRTYYADSVKGRFTISRDNAKNTVYLQMNSLKPEDTAVYYCARYGKRGYYYWGQGTQVTVSS | low polyreactivity |
| QVQLVESGGGLVQAGGSLSLSCAASGITFGLYAMGWYRQATGKERELVAAITSGDRTYYADSVKGRFTISRDNAKNTVYLQMISLTPEDTAVNYCNAEAWWVYYYYGTYLAGSYYWGQGTQVTVSS | high polyreactivity |
| QVQLVESGGGLVQAGGSLSLSCAASGITFIHNAMGLYIQAPGKERELVAAITPSDGSTYYADSVKGRFTISRDNAKNTVFLQMNSLKPEDTAVYYCAARGRHSGYYSVPYYYWGQGTQVTVSS | low polyreactivity |
| QVQLVESGGGLVQAGGSLSLSCAASGITFSYYAMGWYRQAPGNERELVASINFSGGSTSYADSVKGRFTISRDNAKITVYFQMNSLKPEDPAVYYCAAQIWSKDEKHDYWGQGTKVTVSS | high polyreactivity |
| QVQLVESGGGLVQAGGSLSLSCAASGLIFYYYAMGWYRQAPGKERELVAAITRGGRTYYADSVKGRFTISRDNAKNTVYLQMNSLKPEDTAVYYCAAVTRVYGKTMGYWGQGTQVTVSS | high polyreactivity |
| QVQLVESGGGLVQAGGSLSLSCAASGLTFSAYAMGWYRQAPGKERELVAAISSGVSTNYADSVKGRFTISRDNAKNSVYLQMNSLKPEDTAVYYCKAEYWGAYEYWGQGTQVTVSS | high polyreactivity |
| QVQLVESGGGLVQAGGSLSLSCAASGLTSSENAMGWYRQAHGKERELVAAINVSGGSTYYADSVKGRFTISRDNAKNTVYLQMNSLKPEDTAVYYCAADNPYAYARSSWYEYNYWGQGTQVTVSS | high polyreactivity |
| QVQLVESGGGLVQAGGSLSLSCAASGRIFAGYAMGWYRQAPGKERELVAVISSRGGRTYYADSVKGRFTISRDNAKNTVYLQMNSLKPEDTAVYYCNRVFSYQYKRDYWGQGTQVTVSS | high polyreactivity |
| QVQLVESGGGLVQAGGSLSLSCAASGRIFTQYAMGWSRQAPGKERELVTAINASDGSTYADSVKGRFTISRDNAKNTVYLQMNCLIPEDTAVYYCNVTGGPYDFTRWSEFDHWGQGTQVTVSS | low polyreactivity |
| QVQLVESGGGLVQAGGSLSLSCAASGRILYSYAMGWYRQAPGKERELVASISLSGGRTYADSVKGRFTISRDNAKNTVYLQMNSLKPEDTAVYYCNARIRTSRYLWPFDYWGQGTQVTVSS | high polyreactivity |
| QVQLVESGGGLVQAGGSLSLSCAASGRTFGLNVMGWYRQAPGKERELVATISGVGSTNYADSVKWRFTISRDNAKNTVYLQMNSLKPEDTAVYYCAKDPHVGRWWDLYSPYYSWGQGTQVTVSS | low polyreactivity |
| QVQLVESGGGLVQAGGSLSLSCAASGRTFIRNAMGWYRQAPGKERELVAAINSGGITNYADSVKGRFTISRDNAKNTVYLQMNSLKPEDTAVYYCNARQVLFGLYLRAYPFEYWGQGTQVTVSS | low polyreactivity |
| QVQLVESGGGLVQAGGSLSLSCAASGRTFKPYAMGWYRQAPGKERELVAVITSNGSSTYYADSVKGRFTISRDNAKNTVYLQMNSLKPEDTAVYYCATKLTYTLTSGAYAYDYWGQGTQVTVSS | low polyreactivity |
| QVQLVESGGGLVQAGGSLSLSCAASGRTFYTNAMGSSRQAPGKERELVAAISLRDVNTYYADSVKGRFTISRDNAKNTVYLQMNSLKPEDTAVYYCAARSRRRFDWGQGTQVTVSS | high polyreactivity |
| QVQLVESGGGLVQAGGSLSLSCAASGSIFAYKAMGWYRQAPGKEREFVAVITRSDDSTYADSVKGRFTISRDNAKNNVYLQMNSLKPEDTAVYYCAVVANYVYSKYDYWGQGTQVTVSS | low polyreactivity |
| QVQLVESGGGLVQAGGSLSLSCAASGSIFGIYAMGWYRQAAGKDRELVATINSRGTTNYADSVKGRFTISRYNAKNTVYLQMNSLKPEDTAVYYCAARFSTYRGKLKGYEYWGQGTQVTVSS | high polyreactivity |
